Where no end group is shown, it is not given here.
Key:
GPDNKENCPV [1] = target: T1, GPDNKENCPV (human, also: biotinylated); assay: Pepscan ELISA, peptide on streptavidin plate
T1 peptide: GPDNKENCPV
Experimental: (§1) In order to determine the amino acid region to which the selected monoclonal antibodies bind a Pepscan analysis with biotinylated 10 amino acid target peptides was carried out. The procedure is based on synthesis of a set of 14 ten-mer amino acid peptides representing the region from 193 to 226 of the TK1 sequence as shown in connection with Example 1. Each peptide has an eight amino acids overlap and two amino acids gaps, leading to a set of 14 different peptides, see Table 2. The entire full-length peptide is also included and all these peptides were immobilized on a streptavidine coated microtiter plate. After a 1 hour adsorption step the plates were washed with PBS, 1% BSA and 0.1% Tween 20. The different antibodies were then added at approximately 5 μg/ml and the plates were incubated for 1 hour, followed by washing three times. Then a HRP conjugate was added and incubated for 1 hour. The plates were then washed six times with the same buffer. Finally the absorbance was determined with 100 μl 3,3′,5,5′-tetramethylbenzidine (TMB) substrate and the results from one test with a series of antibodies are shown in Table 2.

ASGQPAGPDN [2] = target: T2, ASGQPAGPDN (human, also: biotinylated, position not given here); assay: Pepscan ELISA, peptide on streptavidin plate
T2 peptide: ASGQPAGPDN
Experimental: as §1

KENCPVPGKP [3] = target: T3, KENCPVPGKP (human, also: biotinylated); assay: Pepscan ELISA, peptide on streptavidin plate
T3 peptide: KENCPVPGKP
Experimental: as §1

XPA 210 peptide = target: T4, XPA 210 peptide (human, immobilized on streptavidin coated plate (biotinylated) in the Pepscan); assay: Pepscan ELISA, peptide on streptavidin plate
T4 construct: also called 31-mer; 31-mer peptide
T4 peptide: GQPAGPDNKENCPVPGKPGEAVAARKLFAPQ
Experimental: as §1

NCPVPGKPGE [4] = target: T5, NCPVPGKPGE (human, also: biotinylated); assay: Pepscan ELISA, peptide on streptavidin plate
T5 construct: also called peptide 7
T5 peptide: NCPVPGKPGE
Experimental: as §1

DNKENCPVPG [5] = target: T6, DNKENCPVPG (human, also: biotinylated); assay: Pepscan ELISA, peptide on streptavidin plate
T6 peptide: DNKENCPVPG
Experimental: as §1

PGKPGEAVAA [6] = target: T7, PGKPGEAVAA (human, also: biotinylated); assay: Pepscan ELISA, peptide on streptavidin plate
T7 peptide: PGKPGEAVAA
Experimental: as §1

GEAVAARKLF [7] = target: T8, GEAVAARKLF (human, also: biotinylated); assay: Pepscan ELISA, peptide on streptavidin plate
T8 construct: also called 10-mer; 10-mer peptide
T8 peptide: GEAVAARKLF
Experimental: as §1

AVAARKLFAP [8] = target: T9, AVAARKLFAP (human, also: biotinylated); assay: Pepscan ELISA, peptide on streptavidin plate
T9 peptide: AVAARKLFAP
Experimental: as §1

ARKLFAPQQI [9] = target: T10, ARKLFAPQQI (human, also: biotinylated, position not given here); assay: Pepscan ELISA, peptide on streptavidin plate
T10 peptide: ARKLFAPQQI
Experimental: as §1

PAGPDNKENC [10] = target: T11, PAGPDNKENC (human, also: biotinylated); assay: Pepscan ELISA, peptide on streptavidin plate
T11 peptide: PAGPDNKENC
Experimental: as §1

GQPAGPDNKE [11] = target: T12, GQPAGPDNKE (human, also: biotinylated); assay: Pepscan ELISA, peptide on streptavidin plate
T12 peptide: GQPAGPDNKE
Experimental: as §1

KPGEAVAARK [12] = target: T13, KPGEAVAARK (human, also: biotinylated); assay: Pepscan ELISA, peptide on streptavidin plate
T13 peptide: KPGEAVAARK
Experimental: as §1

PVPGKPGEAV [13] = target: T14, PVPGKPGEAV (human, also: biotinylated); assay: Pepscan ELISA, peptide on streptavidin plate
T14 construct: also called peptide 8
T14 peptide: PVPGKPGEAV
Experimental: as §1

AARKLFAPQQ [14] = target: T15, AARKLFAPQQ (human, also: biotinylated, position not given here); assay: Pepscan ELISA, peptide on streptavidin plate
T15 peptide: AARKLFAPQQ
Experimental: as §1

human recombinant TK1 [15] = target: T16, human recombinant TK1 (human, UniProt P04183 1-234, limits assumed); assay: Attana 200 quartz crystal microbalance biosensor, antibody captured by anti-mouse IgG, rTK1 injected, 1:1 model
T16 construct: also called human rTK1; rTK1
T16 sequence (looked up): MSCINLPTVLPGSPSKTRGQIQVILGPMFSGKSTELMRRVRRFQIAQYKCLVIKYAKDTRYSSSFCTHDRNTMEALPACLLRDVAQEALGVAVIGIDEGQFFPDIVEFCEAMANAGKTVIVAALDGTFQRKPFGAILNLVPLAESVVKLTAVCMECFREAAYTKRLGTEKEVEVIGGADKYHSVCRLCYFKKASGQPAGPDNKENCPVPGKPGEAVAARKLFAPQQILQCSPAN
Experimental: (§2) In the experiment shown in FIGS. 8A and 8B an LNB Carboxyl sensor chip was used, which was pre-reacted with the Mouse IgG capture kit (Biacore, GE Healthcare) with the amine coupling procedure. The ligands were XPA 210-Ar1 and XPA 210-Ar2 and they were captured to the surface with anti-mouse antibodies by two injections of 50 μg/ml antibody solutions in a 10 mM acetate buffer pH 4.5. An identically treated chip without the capture antibody was used a negative control. Pure recombinant TK1, diluted to 20 μg/ml in 10 mM HEPES, 150 mM NaCl, 0.005% Tween 20, pH 7.4, was injected over the surface at 25 μl/min. The association time was 84 s and the dissociation was measured for another 300 s. Buffer without recombinant TK1 was injected as a blank and subtracted from the sample injection signals.
(§3) An 1:1 binding model was used for calculation of the kinetic constants from the fitted curves of the double reference data as shown in FIGS. 8A and 8B.

human recombinant TK1 [16] = target: T16, human recombinant TK1; assay: Attana quartz crystal microbalance, antibody captured by anti-mouse IgG on the chip, recombinant TK1 injected at 20 to 1.25 ug/ml, 1:1 binding model
Experimental: as §2, §3

GPDNKENCPV [17] = target: T1, GPDNKENCPV; assay: Pepscan ELISA
Experimental: as §1

ASGQPAGPDN [18] = target: T2, ASGQPAGPDN; assay: Pepscan ELISA
Experimental: as §1

KENCPVPGKP [19] = target: T3, KENCPVPGKP; assay: Pepscan ELISA
Experimental: as §1

NCPVPGKPGE [20] = target: T5, NCPVPGKPGE; assay: Pepscan ELISA
Experimental: as §1

DNKENCPVPG [21] = target: T6, DNKENCPVPG; assay: Pepscan ELISA
Experimental: as §1

PGKPGEAVAA [22] = target: T7, PGKPGEAVAA; assay: Pepscan ELISA
Experimental: as §1

GEAVAARKLF [23] = target: T8, GEAVAARKLF; assay: Pepscan ELISA
Experimental: as §1

AVAARKLFAP [24] = target: T9, AVAARKLFAP; assay: Pepscan ELISA
Experimental: as §1

ARKLFAPQQI [25] = target: T10, ARKLFAPQQI; assay: Pepscan ELISA
Experimental: as §1

PAGPDNKENC [26] = target: T11, PAGPDNKENC; assay: Pepscan ELISA
Experimental: as §1

GQPAGPDNKE [27] = target: T12, GQPAGPDNKE; assay: Pepscan ELISA
Experimental: as §1

KPGEAVAARK [28] = target: T13, KPGEAVAARK; assay: Pepscan ELISA
Experimental: as §1

PVPGKPGEAV [29] = target: T14, PVPGKPGEAV; assay: Pepscan ELISA
Experimental: as §1

AARKLFAPQQ [30] = target: T15, AARKLFAPQQ; assay: Pepscan ELISA
Experimental: as §1

Binder	absorbance at 415 nm (GPDNKENCPV [1])	absorbance at 415 nm (ASGQPAGPDN [2])	absorbance at 415 nm (KENCPVPGKP [3])	absorbance at 415 nm (XPA 210 peptide)	absorbance at 415 nm (NCPVPGKPGE [4])	absorbance at 415 nm (DNKENCPVPG [5])	absorbance at 415 nm (PGKPGEAVAA [6])	absorbance at 415 nm (GEAVAARKLF [7])	absorbance at 415 nm (AVAARKLFAP [8])	absorbance at 415 nm (ARKLFAPQQI [9])	absorbance at 415 nm (PAGPDNKENC [10])	absorbance at 415 nm (GQPAGPDNKE [11])	absorbance at 415 nm (KPGEAVAARK [12])	absorbance at 415 nm (PVPGKPGEAV [13])	absorbance at 415 nm (AARKLFAPQQ [14])	other results
XPA 210-Ar1 (antibody, V domains shown, Mouse monoclonal from hybridoma; also called monoclonal antibody XPA 210-Ar1) VH: QVQLQQSGAELVRPGASMKLSCKALGYTLTDYEMHWVKQTPAHGLEWIGAIHPGYGGTAYNQKFKGKATLTADKSSSTAYMELSSLTSEDSAVYYCTTFITKFDYWGQGTTLTVSS VL: not shown	0.112 absorbance	0.113 absorbance	0.109 absorbance	3.84 absorbance	0.114 absorbance	0.108 absorbance	0.112 absorbance	3.51 absorbance	0.125 absorbance	0.13 absorbance	0.12 absorbance	0.108 absorbance	0.116 absorbance	0.115 absorbance	0.137 absorbance	Kd (human recombinant TK1 [15]): 0.65 nM; koff (human recombinant TK1 [16]): 1.61e-05 s⁻¹; kon (human recombinant TK1 [16]): 24800 M⁻¹ s⁻¹
XPA 210-Ar2 (antibody, V domains shown, Mouse monoclonal from hybridoma; also called Sup-162; XPA-Ar2) VH: QVQLQQSGAELVRPGASVKLSCKALGYTFTDYEMHWVRQTPVHGLEWIGAILPGSGGTAYNQKFKGKATLTADKSSSTAYMELSSLTSEDSAVYYCTTLITTFDYWGQGTTLTVSS VL: not shown	0.063 absorbance	0.067 absorbance	0.063 absorbance	3.79 absorbance	0.064 absorbance	0.063 absorbance	0.067 absorbance	0.072 absorbance	0.077 absorbance	0.063 absorbance	0.063 absorbance	0.064 absorbance	0.072 absorbance	0.067 absorbance	0.066 absorbance	binding result (GPDNKENCPV [17]): no binding (tested: approximately 5 µg/ml); binding result (ASGQPAGPDN [18]): no binding (tested: approximately 5 µg/ml); binding result (KENCPVPGKP [19]): no binding (tested: approximately 5 µg/ml); binding result (NCPVPGKPGE [20]): no binding (tested: approximately 5 µg/ml); binding result (DNKENCPVPG [21]): no binding (tested: approximately 5 µg/ml); binding result (PGKPGEAVAA [22]): no binding (tested: approximately 5 µg/ml); binding result (GEAVAARKLF [23]): no binding (tested: approximately 5 µg/ml); binding result (AVAARKLFAP [24]): no binding (tested: approximately 5 µg/ml); binding result (ARKLFAPQQI [25]): no binding (tested: approximately 5 µg/ml); binding result (PAGPDNKENC [26]): no binding (tested: approximately 5 µg/ml); binding result (GQPAGPDNKE [27]): no binding (tested: approximately 5 µg/ml); binding result (KPGEAVAARK [28]): no binding (tested: approximately 5 µg/ml); binding result (PVPGKPGEAV [29]): no binding (tested: approximately 5 µg/ml); binding result (AARKLFAPQQ [30]): no binding (tested: approximately 5 µg/ml)
XPA 210-Ar3 (antibody, V domains shown, Mouse monoclonal from hybridoma; also called Sup-165) VH: DVQLQESGPDLVKPSQSLSLTCTVTGYSITSGYSWHWIRQFPGNKLEWLGYIHYSGSTTYNPSLKGRISITRDTSKNQFFLQLNSVTTEDTATYYCARWGTGHWYFDVWAAGTTVTVSS VL: QAVVTQESALTTSPGKTVTLTCRSSTGAVTTTNYANWVQEKPDHLFTGLIGGTNNRVPGVPARFSGSLIGDKAALTITGAQTEDEAIYFCALWYSNHWVFGGGTKLTVL	0.06 absorbance	0.057 absorbance	0.058 absorbance	0.136 absorbance	1.99 absorbance	0.059 absorbance	0.059 absorbance	0.057 absorbance	0.062 absorbance	0.062 absorbance	0.055 absorbance	0.057 absorbance	0.059 absorbance	1.84 absorbance	0.06 absorbance	

Reference: patent US20190002587A1 (AROCELL, published 2019)
